The chains are these.
B1: E. coli Endo III (enzyme, UniProt P0AB83 1-211, looked up)
chain: MNKAKRLEILTRLRENNPHPTTELNFSSPFELLIAVLLSAQATDVSVNKATAKLYPVANTPAAMLELGVEGVKTYIKTIGLYNSKAENIIKTCRILLEQHNGEVPEDRAALEALPGVGRKTANVVLNTAFGWPTIAVDTHIFRVCNRTQFAPGKNVEQVEEKLLKVVPAEFKVDCHHWLILHGRYTCIARKPRCGSCIIEDLCEYKEKVDI
notes: Negative control, immobilised on the membrane
B2: ^32P-labelled XPG-HMK (human XPG with a C-terminal heart muscle kinase recognition sequence tag) (enzyme)
chain: MGVQGLWKLLECSGRQVSPEALEGKILAVDISIWLNQALKGVRDRHGNSIENPHLLTLFHRLCKLLFFRIRPIFVFDGDAPLLKKQTLVKRRQRKDLASSDSRKTTEKLLKTFLKRQAIKTAFRSKRDEALPSLTQVRRENDLYVLPPLQEEEKHSSEEEDEKEWQERMNQKQALQEEFFHNPQAIDIESEDFSSLPPEVKHEILTDMKEFTKRRRTLFEAMPEESDDFSQYQLKGLLKKNYLNQHIEHVQKEMNQQHSGHIRRQYEDEGGFLKEVESRRVVSEDTSHYILIKGIQAKTVAEVDSESLPSSSKMHGMSFDVKSSPCEKLKTEKEPDATPPSPRTLLAMQAALLGSSSEEELESENRRQARGRNAPAAVDEGSISPRTLSAIKRALDDDEDVKVCAGDDVQTGGPGAEEMRINSSTENSDEGLKVRDGKGIPFTATLASSSVNSAEEHVASTNEGREPTDSVPKEQMSLVHVGTEAFPISDESMIKDRKDRLPLESAVVRHSDAPGLPNGRELTPASPTCTNSVSKNETHAEVLEQQNELCPYESKFDSSLLSSDDETKCKPNSASEVIGPVSLQETSSIVSVPSEAVDNVENVVSFNAKEHENFLETIQEQQTTESAGQDLISIPKAVEPMEIDSEESESDGSFIEVQSVISDEELQAEFPETSKPPSEQGEEELVGTREGEAPAESESLLRDNSERDDVDGEPQEAEKDAEDSLHEWQDINLEELETLESNLLAQQNSLKAQKQQQERIAATVTGQMFLESQELLRLFGIPYIQAPMEAEAQCAILDLTDQTSGTITDDSDIWLFGARHVYRNFFNKNKFVEYYQYVDFHNQLGLDRNKLINLAYLLGSDYTEGIPTVGCVTAMEILNEFPGHGLEPLLKFSEWWHEAQKNPKIRPNPHDTKVKKKLRTLQLTPGFPNPAVAEAYLKPVVDDSKGSFLWGKPDLDKIREFCQRYFGWNRTKTDESLFPVLKQLDAQQTQLRIDSFFRLAQQEKEDAKRIKSQRLNRAVTCMLRKEKEAAASEIEAVSVAMEKEFELLDKAKGKTQKRGITNTLEESSSLKRKRLSDSKGKNTCGGFLGETCLSESSDGSSSEDAESSSLMNVQRRTAAKEPKTSASDSQNSVKEAPVKNGGATTSSSSDSDDDGGKEKMVLVTARSVFGKKRRKLRRARGRKRKTRRASV
modifications: ^32P-labeled at the heart muscle kinase (HMK) recognition tag RRASV
notes: The tagged form was used only in the far western and slot blot assays, as the labelled probe in solution; also called ^32P-labeled XPG with a heart muscle kinase (HMK) tag

For test [1], the target named is B2. As to the kind of experiment: far western: ^32P-labelled XPG-HMK probe on proteins transferred from SDS-PAGE. How it is done:
(§1) For “far western” analysis, human PC4 protein (1.5 μg), human Nth1 protein (2.1 μg) and E. coli EndoIII (3 μg) were separated on SDS-PAGE (pre-cast 4-20% gel, BioRad), transferred to a PVDF membrane, and stained with Ponceau S to visualize the proteins on the membrane. The membrane was then blocked with a blocking buffer (25 mM Hepes-KOH (pH 7.7), 25 mM NaCl, 5 mM MgCl₂, 1 mM DTT, 1% nonfat milk and 0.1% NP-40) for 2 hours at 4° C. and probed overnight at 4° C. on a rocker with blocking buffer containing 150 mM KCl and ³²P-labeled XPG with a heart muscle kinase (HMK) tag. The membrane was washed with washing buffer (25 mM Hepes-KOH (pH 7.7), 25 mM NaCl, 150 mM KCl, 5 mM MgCl2, 1 mM DTT, 1% nonfat milk and 0.5% NP-40), and interactions were visualized by both phosphorimager and autoradiography. For slot-blot analysis 1 μg each of PC4, hNth1 and EndoIII were applied to a nitrocellulose membrane, and the membrane was processed as above.
(§2) Since Sub1 evidently functions in a pathway involving Rad2, we tested the possibility of direct interaction between the human PC4 and XPG proteins by “far western” analysis. To test PC4-XPG interaction, ³²P-labeled XPG was used as a probe for PC4 transferred onto a membrane from an SDS-PAGE gel. […]

Test [2] concerns the target T1, human PC4 protein (full length wild type) (human, UniProt P53999 1-127).
T1 construct: Full length wild type PC4 expressed in E. coli BL21(DE3) and purified by the methods of Ge et al; It was immobilised on the membrane, denatured after SDS-PAGE in the far western and native in the slot blot
As to the kind of experiment: far western: ^32P-labelled XPG-HMK probe on PC4 transferred from SDS-PAGE. Here is the method: as §1, §2

Regarding B1, in test [1], the binding result is recorded as “no binding (tested: 3 µg EndoIII on the membrane)”.

B2: the binding result in test [2] is on record as “binds”.

The values above are taken from patent publication US20100077492A1 (UNIVERSITY OF MASSACHUSETTS, published 2010).
